Reference: US20190300590A1 (PROTAGONIST THERAPEUTICS, published 2019)
Read-outs that look alike come from different tables or passages of the source. *1 amine or outer side, *2 acyl side, *3 side chain or, on linkers, in order; H or OH if unused. Bridges are numbered along the chain shown (N, C = ends). Primed or numbered codes have the meaning given here. [ ]: non-standard residue; d: D form. The star is where a group is joined. Phe(4-OMe)(3) = O-methyl-L-tyrosine (4-methoxy-L-phenylalanine), COc1ccc(C[C@H](N[*:1])C(=O)[*:2])cc1; Phe(4-OMe) = 4-methoxy-L-phenylalanine (O-methyl-L-tyrosine), COc1ccc(C[C@H](N[*:1])C(=O)[*:2])cc1; Phe(4-OMe)(4) = O-methyl-L-tyrosine, COc1ccc(C[C@H](N[*:1])C(=O)[*:2])cc1; 2Nal = N[C@@H](Cc1ccc2ccccc2c1)C(=O)O; AEF = NCCOc1ccc(C[C@H](N)C(=O)O)cc1; αMeL = CC(C)C[C@](C)(N)C(=O)O; Suc = O=C(CCC(=O)[*:2])[*:1]; αMeK = C[C@](N)(CCCCN)C(=O)O; Isovaleryl = CC(C)CC(=O)*; Abu = CC[C@H](N)C(=O)O; Aib = CC(C)(N)C(=O)O

How the values were obtained:
Rat IL-23R_huFC [1] = target: T1, Rat IL-23R_huFC (rat, UniProt F1LX96 39-369); experiment: rat IL-23R competitive binding ELISA
T1 sequence: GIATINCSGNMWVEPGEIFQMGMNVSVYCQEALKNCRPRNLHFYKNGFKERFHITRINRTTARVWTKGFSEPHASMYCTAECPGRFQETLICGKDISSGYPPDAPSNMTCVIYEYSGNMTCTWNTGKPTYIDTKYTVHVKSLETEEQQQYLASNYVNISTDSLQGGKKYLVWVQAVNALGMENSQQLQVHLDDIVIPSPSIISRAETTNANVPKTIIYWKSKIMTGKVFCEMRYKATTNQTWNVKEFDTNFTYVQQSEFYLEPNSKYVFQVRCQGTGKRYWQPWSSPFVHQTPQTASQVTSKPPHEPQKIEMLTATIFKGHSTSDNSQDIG

IL23R_huFC [2] = target: T2, IL23R_huFC (human, UniProt Q5VWK5 24-353); experiment: IL23-IL23R competitive binding ELISA
T2 sequence (looked up): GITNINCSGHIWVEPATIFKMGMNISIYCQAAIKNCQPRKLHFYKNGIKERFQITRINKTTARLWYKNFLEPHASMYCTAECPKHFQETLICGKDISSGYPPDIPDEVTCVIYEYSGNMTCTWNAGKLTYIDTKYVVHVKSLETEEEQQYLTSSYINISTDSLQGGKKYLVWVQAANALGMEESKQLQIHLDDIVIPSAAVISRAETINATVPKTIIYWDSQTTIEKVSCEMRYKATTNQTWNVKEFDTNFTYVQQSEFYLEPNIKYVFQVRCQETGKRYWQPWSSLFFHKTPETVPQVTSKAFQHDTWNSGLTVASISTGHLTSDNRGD

[3] = target: T3, IL-23R on human cells (IL-23R-expressing DB cells; human NK cells) (human, UniProt Q5VWK5 24-629); experiment: cell-based or functional assay
T3 sequence (looked up): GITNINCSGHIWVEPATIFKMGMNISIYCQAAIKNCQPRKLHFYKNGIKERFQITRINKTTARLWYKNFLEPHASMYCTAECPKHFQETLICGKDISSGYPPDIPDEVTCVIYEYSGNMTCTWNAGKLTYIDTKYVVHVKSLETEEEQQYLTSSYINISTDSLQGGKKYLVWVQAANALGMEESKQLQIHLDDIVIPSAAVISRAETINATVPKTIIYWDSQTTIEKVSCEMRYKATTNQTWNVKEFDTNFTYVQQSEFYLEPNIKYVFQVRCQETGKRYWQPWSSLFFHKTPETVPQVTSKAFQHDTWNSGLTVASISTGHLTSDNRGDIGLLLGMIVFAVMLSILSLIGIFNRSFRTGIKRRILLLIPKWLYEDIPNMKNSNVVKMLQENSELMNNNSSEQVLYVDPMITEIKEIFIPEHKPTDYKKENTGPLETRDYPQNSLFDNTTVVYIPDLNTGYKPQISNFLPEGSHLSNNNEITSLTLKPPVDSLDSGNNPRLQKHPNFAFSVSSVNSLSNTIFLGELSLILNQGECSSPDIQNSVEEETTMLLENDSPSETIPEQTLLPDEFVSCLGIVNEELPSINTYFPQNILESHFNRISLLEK

Rat IL-23R_huFC [4] = target: Rat IL-23R_huFC (rat); experiment: rat ELISA vs IL-23
IL23R_huFC [5] = target: T4, IL23R_huFC (human, UniProt Q5VWK5 24-353); experiment: human ELISA vs IL-23
T4 sequence (looked up): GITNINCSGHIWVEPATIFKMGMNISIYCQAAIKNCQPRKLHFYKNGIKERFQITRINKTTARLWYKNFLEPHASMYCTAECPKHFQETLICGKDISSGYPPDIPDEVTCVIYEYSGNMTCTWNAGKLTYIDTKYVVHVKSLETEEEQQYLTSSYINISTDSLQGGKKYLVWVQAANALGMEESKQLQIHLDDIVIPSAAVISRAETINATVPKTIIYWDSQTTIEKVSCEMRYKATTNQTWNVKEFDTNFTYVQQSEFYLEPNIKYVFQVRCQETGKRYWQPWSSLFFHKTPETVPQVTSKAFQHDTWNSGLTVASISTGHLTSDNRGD

Rat IL-23R_huFC [6] = target: Rat IL-23R_huFC (rat); experiment: rat ELISA vs IL-23; remark: listed apart in the source
IL23R_huFC [7] = target: T4, IL23R_huFC; experiment: human ELISA vs IL-23; remark: listed apart in the source

Question: Which IC50 (Rat IL-23R_huFC [1]) does the source give for XQTWQXFXVKNN (Ac; Pen-Pen disulfide; Phe(4-CONH2); 2-Nal; α-MeVal; Lys(Ac); NH2) [Ac-[Pen]-QTWQ-[Pen]-[Phe(4-CONH2)]-[2-Nal]-[α-MeVal]-[Lys(Ac)]-NN-NH2] here?
Answer: The IC50 was 10 to 25 nM.

Question: With XQTWQXYWKKNG (Ac; Pen-Pen disulfide; α-MeLys; Lys(Ac); NH2) [Ac-[Pen]-QTWQ-[Pen]-YW-[α-MeLys]-[Lys(Ac)]-NG-NH2] as the binder, how does the IC50 (IL23R_huFC [2]) read?
Answer: The IC50 was 100 to 1000 nM.

Question: For XQTWQXFWKKNG (Ac; Pen-Pen disulfide; Phe(4-OMe); α-MeLys; Lys(Ac); NH2) [Ac-[Pen]-QTWQ-[Pen]-[Phe-(4-OMe)]-W-[α-MeLys]-[Lys(Ac)]-NG-NH2], which IC50 (Rat IL-23R_huFC [1]) is on record?
Answer: The IC50 was 25 to 100 nM.

Question: Which “pStat3 HTRF IC50” value [3] does the source give for Ac-[dK][Abu]QTWQC[Phe(4-OMe)(4)][2Nal][αMeL]ENG-NH2 (thioether 2-7) [Ac-(D)Lys-[Cyclo-[[Abu]-QTWQC]]-[Phe(4-OMe)]-[2-Nal]-[α-MeLeu]-ENG-NH2] here?
Answer: Its value is less than 10 nM.

Question: What about the IC50 (Rat IL-23R_huFC [4]) of the same binder?
Answer: Its IC50 is 10 to 25 nM.

Question: What about the IC50 (IL23R_huFC [5]) of the same binder?
Answer: Its IC50 is less than 10 nM.

Question: How did the “pStat3 HTRF IC50” value [3] turn out when Ac-[Abu]QTWQCYW[αMeL]ENG-NH2 (thioether 1-6) [Ac-Cyclo-[[Abu]-QTWQC]-YW-[α-MeLeu]-ENG-NH2] was run?
Answer: The value was less than 10 nM.

Question: What about the IC50 (Rat IL-23R_huFC [6]) of the same binder?
Answer: The IC50 was 25 to 100 nM.

Question: And the IC50 (IL23R_huFC [7])?
Answer: Its IC50 is 10 to 25 nM.

Question: Which results are given for Ac-[Abu]QTWQC[Phe(4-OMe)]W[αMeK]K(Ac)NG-NH2 (thioether 1-6) [Ac-Cyclo-[[Abu]-QTWQC]-[Phe(4-OMe)]-W-[α-MeLys]-[Lys(Ac)]-NG-NH2]?
Answer: IC50 (Rat IL-23R_huFC [4]): 10 to 25 nM; IC50 (IL23R_huFC [7]): 10 to 25 nM

Question: How did the IC50 (IL23R_huFC [2]) turn out when XQTWQXYWLENG (Ac; Pen-Pen disulfide; hLeu; NH2) [Ac-[Pen]-QTWQ-[Pen]-YW-[hLeu]-ENG-NH2] was run?
Answer: Its IC50 is 100 to 1000 nM.

Question: How did the IC50 (Rat IL-23R_huFC [4]) turn out when Ac-[Abu]QTWQC[AEF][2Nal][αMeK]K(Suc)NG-NH2 (thioether 1-6) [Ac-Cyclo-[[Abu]-QTWQC]-[Phe[4-(2-aminoethoxy)]]-[2-Nal]-[α-MeLys]-[Lys(succinic acid)]-NG-NH2] was run?
Answer: Its IC50 is 10 to 25 nM.

Question: Which IC50 (Rat IL-23R_huFC [4]) does the source give for Ac-[Abu]QTWQC[AEF][2Nal][αMeK]K(Isovaleryl)NG-NH2 (thioether 1-6) [Ac-Cyclo-[[Abu]-QTWQC]-[Phe[4-(2-aminoethoxy)]]-[2-Nal]-[α-MeLys]-[Lys(isovaleric acid)]-NG-NH2] here?
Answer: The IC50 was 10 to 25 nM.

Question: XQTWQXFXKKNG (Ac; Pen-Pen disulfide; Phe[4-(2-aminoethoxy)]; 2-Nal; α-MeLys; Lys(Ac); NH2) [Ac-[Pen]-QTWQ-[Pen]-[Phe[4-(2-aminoethoxy)]-[2-Nal]-[α-MeLys]-[Lys(Ac)]-NG-NH2] was tested. Which IC50 (Rat IL-23R_huFC [1]) did it give?
Answer: Its IC50 is 25 to 100 nM.

Question: Which IC50 (Rat IL-23R_huFC [1]) does the source give for XRTWQXYWRKFGXK (Ac; Pen-Pen disulfide; AEA; (D)-Lys; NH2) [Ac-[Pen]-RTWQ-[Pen]-YWRKFG-[AEA]-[(D)-Lys]-NH2] here?
Answer: The IC50 was 25 to 100 nM.

B1: gallic acid-[Pen]-QTWQ[Pen]-[Phe(4-OMe)]-[2-Nal]-[α-MeLys]-[Lys(Ac)]-NG-NH2 (peptide)
peptide: XQTWQXFXKKNG
modifications: N-terminal gallic acid; Pen-Pen disulfide; Phe(4-OMe); 2-Nal; α-MeLys; Lys(Ac); NH2
Question: With B1 as the binder, how does the IC50 (IL23R_huFC [2]) read?
Answer: Its IC50 is 1000 to 10000 nM.

Question: Which results are given for Ac-[2Nal][Abu]QTWQC[AEF][2Nal][αMeK]ENN-NH2 (thioether 2-7) [Ac-[2-Nal]-Cyclo-[[Abu]-QTWQC]-[Phe[4-(2-aminoethoxy)]]-[2-Nal]-[α-MeLys]-ENN-NH2]?
Answer: pStat3 HTRF IC50 [3]: < 10 nM; IC50 (Rat IL-23R_huFC [4]): 10 to 25 nM; IC50 (IL23R_huFC [5]): < 10 nM

B2: 4-methylmorpholine-2,6-dione-[Pen]-QTWQ[Pen]-[Phe(4-OMe)]-[2-Nal]-[α-MeLys]-[Lys(Ac)]-NG-NH2 (peptide)
peptide: XQTWQXFXKKNG
modifications: N-terminal 4-methylmorpholine-2,6-dione; Pen-Pen disulfide; Phe(4-OMe); 2-Nal; α-MeLys; Lys(Ac); NH2
Question: With B2 as the binder, how does the IC50 (Rat IL-23R_huFC [1]) read?
Answer: Its IC50 is 25 to 100 nM.

Question: For Ac-[Abu]QTWQC[AEF]W[αMeK]ENG-NH2 (thioether 1-6) [Ac-Cyclo-[[Abu]-QTWQC]-[Phe[4-(2-aminoethoxy)]-W-[α-MeLys]-ENG-NH2], which IC50 (Rat IL-23R_huFC [4]) is on record?
Answer: The IC50 was 10 to 25 nM.

B3: glutaric acid-[Pen]-QTWQ[Pen]-[Phe(4-OMe)]-[2-Nal]-[α-MeLys]-[Lys(Ac)]-NG-NH2 (peptide)
peptide: XQTWQXFXKKNG
modifications: N-terminal glutaric acid; Pen-Pen disulfide; Phe(4-OMe); 2-Nal; α-MeLys; Lys(Ac); NH2
Question: B3 was tested. Which IC50 (Rat IL-23R_huFC [1]) did it give?
Answer: The IC50 was 25 to 100 nM.

Question: Ac-[Abu]QTWQC[Phe(4-OMe)(3)][2Nal][αMeK]K(Ac)NAE-NH2 (thioether 1-6) [Ac-Cyclo-[[Abu]-QTWQC]-[Phe(4-OMe)]-[2-Nal][α-MeLys]-[Lys(Ac)]-NAE-NH2] was tested. Which “pStat3 HTRF IC50” value [3] did it give?
Answer: The value was less than 10 nM.

Question: And the IC50 (Rat IL-23R_huFC [4])?
Answer: The IC50 was 10 to 25 nM.

Question: What about the IC50 (IL23R_huFC [5]) of the same binder?
Answer: The IC50 was less than 10 nM.

Question: What does the source list for Ac-[Abu]QTWQC[AEF]W[Aib]ENG-NH2 (thioether 1-6) [Ac-Cyclo-[[Abu]-QTWQC]-[Phe[4-(2-aminoethoxy)]]-W-[Aib]-ENG-NH2]?
Answer: pStat3 HTRF IC50 [3]: < 10 nM; IC50 (IL23R_huFC [7]): 10 to 25 nM

B4: 4-fluorophenylacetic acid-[Pen]-QTWQ-[Pen]-[Phe(4-OMe)]-[2-Nal]-[α-MeLys]-[Lys(Ac)]-NG-NH2 (peptide)
peptide: XQTWQXFXKKNG
modifications: N-terminal 4-fluorophenylacetic acid; Pen-Pen disulfide; Phe(4-OMe); 2-Nal; α-MeLys; Lys(Ac); NH2
Question: B4 was tested. Which IC50 (Rat IL-23R_huFC [1]) did it give?
Answer: Its IC50 is 100 to 1000 nM.
